The source of these data is PMC10462110 (bioRxiv, 2023).

Where two headings read alike, the source gives them in different places. Where no end group is shown, it is not given here. [ ]: non-standard residue; d: D form. pS = N[C@@H](COP(=O)(O)O)C(=O)O

Assay [1] has as its target CHIP (UniProt Q9UNE7). Description: differential scanning fluorimetry of CHIP. The conditions noted are these: reference: WT peptide; sites S416.
In assay [2] the target is GFP-tagged tauC3 S416E, doxycycline-inducible in HEK293 Flp-In T-REx cells. Description: co-IP.
In assay [3] the target is CHIP, NanoBiT fusion expressed in HEK293T cells (UniProt Q9UNE7). Description: split reporter.
The target of assay [4] is Recombinant human CHIP (C-terminus of Hsc70 interacting protein; STUB1) (human) (UniProt Q9UNE7). Description: ELISA. For orientation: In an ELISA, binding on a coated surface is turned into a signal by an enzyme label.
Assay [5] has as its target CHIP (UniProt Q9UNE7). Kind of assay: co-IP with anti-Tau-5, CHIP blot. The note with it: reference: GFP-tauC3; sites S416.
Assay [6] deals with Recombinant human CHIP (C-terminus of Hsc70 interacting protein; STUB1) (human) (UniProt Q9UNE7). Kind of assay: ELISA. The source holds these as a separate data set.
The next assay concerns the target T1, CHIP F131A (human, UniProt Q9UNE7 1-303, F131A).
T1 sequence (looked up): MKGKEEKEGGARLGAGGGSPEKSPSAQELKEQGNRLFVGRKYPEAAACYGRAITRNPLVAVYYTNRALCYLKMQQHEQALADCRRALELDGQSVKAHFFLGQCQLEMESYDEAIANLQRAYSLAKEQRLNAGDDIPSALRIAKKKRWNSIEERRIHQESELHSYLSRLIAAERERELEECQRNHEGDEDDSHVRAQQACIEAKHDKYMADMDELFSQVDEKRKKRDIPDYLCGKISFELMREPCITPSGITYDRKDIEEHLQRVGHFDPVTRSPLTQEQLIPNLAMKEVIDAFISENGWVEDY
Description: differential scanning fluorimetry.

In assay [7] the target is T2, Recombinant human CHIP (C-terminus of Hsc70 interacting protein; STUB1) (human, UniProt Q9UNE7 1-303).
T2 sequence (looked up): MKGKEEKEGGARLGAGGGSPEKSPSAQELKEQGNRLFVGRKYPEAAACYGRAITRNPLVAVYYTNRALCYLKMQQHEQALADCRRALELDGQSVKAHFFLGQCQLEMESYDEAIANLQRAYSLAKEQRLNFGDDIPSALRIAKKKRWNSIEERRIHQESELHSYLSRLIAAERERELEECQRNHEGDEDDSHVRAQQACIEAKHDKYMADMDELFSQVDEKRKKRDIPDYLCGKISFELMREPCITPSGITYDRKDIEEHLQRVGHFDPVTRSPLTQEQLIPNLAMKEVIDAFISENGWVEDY
Description: fluorescence polarisation.

In assay [8] the target is T3, CHIP D134A (human, UniProt Q9UNE7 1-303, D134A).
T3 sequence (looked up): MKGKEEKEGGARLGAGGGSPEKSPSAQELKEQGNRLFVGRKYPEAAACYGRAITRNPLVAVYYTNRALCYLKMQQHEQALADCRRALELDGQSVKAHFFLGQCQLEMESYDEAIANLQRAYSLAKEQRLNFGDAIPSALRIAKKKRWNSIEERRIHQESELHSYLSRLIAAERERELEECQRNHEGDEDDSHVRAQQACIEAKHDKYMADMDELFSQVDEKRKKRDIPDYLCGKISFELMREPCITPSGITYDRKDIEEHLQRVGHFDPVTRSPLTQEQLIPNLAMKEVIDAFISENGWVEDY
Kind of assay: fluorescence polarisation.

In assay [9] the target is T3, CHIP D134A. Kind of assay: differential scanning fluorimetry. (DSF heats the sample and reads unfolding from a dye or from intrinsic fluorescence.)

For “tau (MAPT); tauC3 proteoform C-terminal 10-mer ending at D421 (from UniProt P10636-8) S416E peptide (…)”, the “other: CHIP apparent Tm” value with CHIP [1] was “weaker; reference 48.81 ± 0.11”.

On to “endogenous CHIP (from UniProt Q9UNE7 1-303) (enzyme)”, for which, in assay [2], the relative amount of CHIP bound (normalized to tauC3) was 0.55.

In the case of “tauC3, NanoBiT fusion expressed in HEK293T cells (domain or fragment)”, in [3], the fold binding over FL tau was 5 fold.

A word on the Kd: it is the equilibrium constant for the complex coming apart. As for “tauC3 S416E (purified protein) (domain or fragment)”, the Kd in assay [4] is 780 nM.

On to “tau (MAPT); tauC3 proteoform tauC3, C-terminus at D421 (from UniProt P10636-8) GFP-tauC3 S416E”, for which the other: relative CHIP bound, normalised to tauC3 with CHIP [5] worked out at 0.55.

In the case of “tauC3 (unmodified, produced from E. coli) (domain or fragment)”, the results for the Kd in assay [4] and in assay [6] were 90 nM and 190 nM, respectively.

Regarding “natively phosphorylated tauC3 (p.tauC3) from Sf9 insect cells (domain or fragment)”, the Kd in [6] came out at 700 nM.

B1: acetylated 10-mer peptide corresponding to the tauC3 C-terminus (Ac-SSTGSIDMVD-OH) (peptide)
peptide: Ac-SSTGSIDMVD-OH
In general, Ki refers to a dissociation constant, usually derived from enzyme kinetics or from competition with a known ligand. In the case of B1, the binding result in the assay with CHIP F131A is given as “binds”. Besides, the inhibition constant Ki in [7] is 150 ± 20 nM; with CHIP D134A [8], 5570 ± 340 nM.

B2: pS416 phosphomimetic 10-mer tauC3 peptide (SSTGEIDMVD) (peptide)
peptide: Ac-SSTGEIDMVD
In the case of B2, the binding result in the assay with CHIP F131A and in the assay with CHIP D134A [9] was “binds” in each case. For the same molecule, the inhibition constant Ki in [7] worked out at 2410 ± 330 nM.

B3: tauC3 pS416 10-mer peptide (peptide)
peptide: SSTG[pS]IDMVD
Regarding B3, the Ki in assay [7] was 1010 ± 990 nM; with CHIP D134A [8], 1840 ± 230 nM.
